Laboratory results published in the supplement of paper PMC10567573.

B1: LPCAT4 (parent)
chain: HDPLYGKLFSTYLRPPHTSRGTSQ

Variants of: B1
Experiment: protein stability index of a GFP-peptide fusion (GPS, HEK-293T) (PSI 1-6); higher = more stable
Details: c terminus: a fixed tail appended
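Also: lentivirally expressed fusions sorted by FACS into six bins by GFP to DsRed ratio, PSI derived from sequencing read proportions per bin multiplied by bin number.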

First: HDPLYGKLFSTYLRPPHTYRGTSQ [S19Y]
Second: HDPLYGKLFSTYLRPPHTSRGFSQ [T22F]
The protein stability index of the first is lower: 2.38 for the first, 2.42 for the second.

First: HDPLYGKLFSTYLRPPHTSRGHSQ [T22H]
Second: HDPLYGKLFSTYLRPPHTSRGRSQ [T22R]
The protein stability index of the first is higher: 2.81 for the first, 2.48 for the second.

First: HDPLYGKLFSTYLRPPHTSRGYSQ [T22Y]
Second: HDPLYGKLFSTYLRPPHTSRGNSQ [T22N]
The protein stability index of the first is lower: 2.13 for the first, 2.8 for the second.

Going from HDPLYGKLFSTYLRPPHTSRGKSQ [T22K] to HDPLYGKLFSTYLRPPHTSRGCSQ [T22C], the protein stability index falls from 2.61 to 2.43.

Going from HDPLYGKLFSTYLRPPHTSRGWSQ [T22W] to HDPLYGKLFSTYLRPPHTSRGSSQ [T22S], the protein stability index rises from 1.98 to 2.74.

Compared with HDPLYGKLFSTYLRPPHTSRGESQ [T22E], HDPLYGKLFSTYLRPPHTSRGLSQ [T22L] is lower in protein stability index: 3.04 for the first, 2.81 for the second.

First: HDPLYGKLFSTYLRPPHTSRGPSQ [T22P]
Second: HDPLYGKLFSTYLRPPHTSRGMSQ [T22M]
The protein stability index of the first is lower: 2.59 for the first, 2.72 for the second.

Compared with HDPLYGKLFSTYLRPPHTSRGGSQ [T22G], HDPLYGKLFSTYLRPPHTSRGASQ [T22A] is lower in protein stability index: 2.75 for the first, 2.66 for the second.

Compared with HDPLYGKLFSTYLRPPHTSRGQSQ [T22Q], HDPLYGKLFSTYLRPPHTSRGVSQ [T22V] is lower in protein stability index: 2.32 for the first, 2.12 for the second.

Going from HDPLYGKLFSTYLRPPHTSRGISQ [T22I] to HDPLYGKLFSTYLRPPHTSRGDSQ [T22D], the protein stability index rises from 2.22 to 2.6.

First: HDPLYGKLFSTYLRPPHTSRCTSQ [G21C]
Second: HDPLYGKLFSTYLRPPHTSRHTSQ [G21H]
The protein stability index of the first is higher: 2.51 for the first, 2.11 for the second.

First: HDPLYGKLFSTYLRPPHTSRFTSQ [G21F]
Second: HDPLYGKLFSTYLRPPHTSRQTSQ [G21Q]
The protein stability index of the first is lower: 2.46 for the first, 2.95 for the second.

Compared with HDPLYGKLFSTYLRPPHTSRATSQ [G21A], HDPLYGKLFSTYLRPPHTSRYTSQ [G21Y] is lower in protein stability index: 2.95 for the first, 1.87 for the second.

First: HDPLYGKLFSTYLRPPHTSRPTSQ [G21P]
Second: HDPLYGKLFSTYLRPPHTSRKTSQ [G21K]
The protein stability index of the first is higher: 2.56 for the first, 2.55 for the second.

First: HDPLYGKLFSTYLRPPHTSRMTSQ [G21M]
Second: HDPLYGKLFSTYLRPPHTSRTTSQ [G21T]
The protein stability index of the first is higher: 2.67 for the first, 2.49 for the second.

Going from HDPLYGKLFSTYLRPPHTSRNTSQ [G21N] to HDPLYGKLFSTYLRPPHTSRLTSQ [G21L], the protein stability index rises from 2.42 to 2.48.

Going from HDPLYGKLFSTYLRPPHTSRSTSQ [G21S] to HDPLYGKLFSTYLRPPHTSRDTSQ [G21D], the protein stability index rises from 2.67 to 3.4.

Going from HDPLYGKLFSTYLRPPHTSRRTSQ [G21R] to HDPLYGKLFSTYLRPPHTSRETSQ [G21E], the protein stability index rises from 2.42 to 2.69.

First: HDPLYGKLFSTYLRPPHTSRVTSQ [G21V]
Second: HDPLYGKLFSTYLRPPHTSRWTSQ [G21W]
The protein stability index of the first is higher: 2.82 for the first, 2 for the second.

Going from HDPLYGKLFSTYLRPPHTSRITSQ [G21I] to HDPLYGKLFSTYLRPPHTSRGTDQ [S23D], the protein stability index rises from 2.41 to 3.17.

Going from HDPLYGKLFSTYLRPPHTSRGTCQ [S23C] to HDPLYGKLFSTYLRPPHTSRGTQQ [S23Q], the protein stability index falls from 2.61 to 2.52.

Going from HDPLYGKLFSTYLRPPHTSRGTAQ [S23A] to HDPLYGKLFSTYLRPPHTSRGTYQ [S23Y], the protein stability index falls from 3 to 2.19.

Compared with HDPLYGKLFSTYLRPPHTSRGTMQ [S23M], HDPLYGKLFSTYLRPPHTSRGTWQ [S23W] is higher in protein stability index: 2.34 for the first, 2.4 for the second.

First: HDPLYGKLFSTYLRPPHTSRGTTQ [S23T]
Second: HDPLYGKLFSTYLRPPHTSRGTIQ [S23I]
The protein stability index of the first is higher: 2.66 for the first, 2.3 for the second.

Compared with HDPLYGKLFSTYLRPPHTSRGTGQ [S23G], HDPLYGKLFSTYLRPPHTSRGTFQ [S23F] is lower in protein stability index: 2.18 for the first, 2.09 for the second.

Compared with HDPLYGKLFSTYLRPPHTSRGTLQ [S23L], HDPLYGKLFSTYLRPPHTSRGTRQ [S23R] is higher in protein stability index: 2.39 for the first, 2.45 for the second.

First: HDPLYGKLFSTYLRPPHTSRGTEQ [S23E]
Second: HDPLYGKLFSTYLRPPHTSRGTPQ [S23P]
The protein stability index of the first is lower: 2.64 for the first, 2.87 for the second.

Going from HDPLYGKLFSTYLRPPHTSRGTHQ [S23H] to HDPLYGKLFSTYLRPPHTSRGTKQ [S23K], the protein stability index falls from 2.73 to 2.51.

Going from HDPLYGKLFSTYLRPPHTSRGTVQ [S23V] to HDPLYGKLFSTYLRPPHTSRGTNQ [S23N], the protein stability index rises from 2.49 to 2.77.

Going from HDPLYGKLFSTYLRPPHTSKGTSQ [R20K] to HDPLYGKLFSTYLRPPHTSAGTSQ [R20A], the protein stability index falls from 2.8 to 2.78.

Compared with HDPLYGKLFSTYLRPPHTSFGTSQ [R20F], HDPLYGKLFSTYLRPPHTSTGTSQ [R20T] is higher in protein stability index: 2.17 for the first, 2.67 for the second.

Compared with HDPLYGKLFSTYLRPPHTSSGTSQ [R20S], HDPLYGKLFSTYLRPPHTSLGTSQ [R20L] is lower in protein stability index: 2.58 for the first, 2.19 for the second.

Compared with HDPLYGKLFSTYLRPPHTSYGTSQ [R20Y], HDPLYGKLFSTYLRPPHTSCGTSQ [R20C] is higher in protein stability index: 2.3 for the first, 2.36 for the second.

Compared with HDPLYGKLFSTYLRPPHTSIGTSQ [R20I], HDPLYGKLFSTYLRPPHTSWGTSQ [R20W] is lower in protein stability index: 2.43 for the first, 2.2 for the second.

First: HDPLYGKLFSTYLRPPHTSDGTSQ [R20D]
Second: HDPLYGKLFSTYLRPPHTSHGTSQ [R20H]
The protein stability index of the first is lower: 2.67 for the first, 2.86 for the second.

Going from HDPLYGKLFSTYLRPPHTSMGTSQ [R20M] to HDPLYGKLFSTYLRPPHTSPGTSQ [R20P], the protein stability index rises from 2.08 to 2.66.

First: HDPLYGKLFSTYLRPPHTSVGTSQ [R20V]
Second: HDPLYGKLFSTYLRPPHTSEGTSQ [R20E]
The protein stability index of the first is lower: 2.29 for the first, 3.53 for the second.

First: HDPLYGKLFSTYLRPPHTSGGTSQ [R20G]
Second: HDPLYGKLFSTYLRPPHTSNGTSQ [R20N]
The protein stability index of the first is higher: 2.83 for the first, 2.56 for the second.

Going from HDPLYGKLFSTYLRPPHTSQGTSQ [R20Q] to HDPLYGKLFSTYLRPPHTSRGTSN [Q24N], the protein stability index falls from 2.85 to 2.78.

First: HDPLYGKLFSTYLRPPHTSRGTSG [Q24G]
Second: HDPLYGKLFSTYLRPPHTSRGTSP [Q24P]
The protein stability index of the first is lower: 2.36 for the first, 2.43 for the second.

Going from HDPLYGKLFSTYLRPPHTSRGTSI [Q24I] to HDPLYGKLFSTYLRPPHTSRGTSD [Q24D], the protein stability index rises from 2.11 to 3.28.

Compared with HDPLYGKLFSTYLRPPHTSRGTSK [Q24K], HDPLYGKLFSTYLRPPHTSRGTSV [Q24V] is lower in protein stability index: 2.56 for the first, 2.42 for the second.

Going from HDPLYGKLFSTYLRPPHTSRGTST [Q24T] to HDPLYGKLFSTYLRPPHTSRGTSH [Q24H], the protein stability index falls from 2.53 to 2.3.

Compared with HDPLYGKLFSTYLRPPHTSRGTSL [Q24L], HDPLYGKLFSTYLRPPHTSRGTSE [Q24E] is higher in protein stability index: 2.29 for the first, 3.01 for the second.

First: HDPLYGKLFSTYLRPPHTSRGTSS [Q24S]
Second: HDPLYGKLFSTYLRPPHTSRGTSF [Q24F]
The protein stability index of the first is higher: 2.72 for the first, 2.28 for the second.

First: HDPLYGKLFSTYLRPPHTSRGTSM [Q24M]
Second: HDPLYGKLFSTYLRPPHTSRGTSC [Q24C]
The protein stability index of the first is lower: 2.45 for the first, 2.64 for the second.

First: HDPLYGKLFSTYLRPPHTSRGTSR [Q24R]
Second: HDPLYGKLFSTYLRPPHTSRGTSA [Q24A]
The protein stability index of the first is higher: 2.39 for the first, 2.28 for the second.
